Experimental data published in the Human Domainome abundance scans (Beltran et al. 2025).
± gives the uncertainty stated by the source.

B1: Zinc finger homeobox protein 4, residues 2183 to 2238; numbered along this chain, Q86UP3 (parent)
chain: SSRTRFTDYQLRVLQDFFDTNAYPKDDEIEQLSTVLNLPTRVIVVWFQNARQKARK

Variants of: B1
Experiment: abundance fitness (aPCA) (normalised: wild type 0, dead -1); higher = more abundant; growth selection in yeast, the domain comes from the species named
Details: Homo sapiens

| Variant | abundance fitness |
| --- | --- |
| SSRTRFTDYQLRVLQDFFDTNAYPKDDEIEQLSTVLNLPTRVIVVWFQNARTKARK | 0.011 ± 0.14 |
| SSRTRFTDYQLRVLQDFFDTNAYPKDDEIEQLSTVLNLPTRVIVVWFQNARHKARK | -0.015 ± 0.23 |
| SSRTRFTDYQLRVLQDFFDTNAYPKDDEIEQLSTVLNLPTRVIVVWFQNARPKARK | -0.049 ± 0.15 |
| SSRTRFTDYQLRVLQDFFDTNAYPKDDEIEQLSTVLNLPTRVIVVWFQNARVKARK | 0.026 ± 0.19 |
| SSRTRFTDYQLRVLQDFFDTNAYPKDDEIEQLSTVLNLPTRVIVVWFQNARLKARK | -0.121 ± 0.11 |
| SSRTRFTDYQLRVLQDFFDTNAYPKDDEIEQLSTVLNLPTRVIVVWFQNARQKADK | -0.041 ± 0.21 |
| SSRTRFTDYQLRVLQDFFDTNAYPKDDEIEQLSTVLNLPTRVIVVWFQNARQKAWK | -0.286 ± 0.14 |
| SSRTRFTDYQLRVLQDFFDTNAYPKDDEIEQLSTVLNLPTRVIVVWFQNARQKAFK | -0.369 ± 0.27 |
| SSRTRFTDYQLRVLQDFFDTNAYPKDDEIEQLSTVLNLPTRVIVVWFQNARQKALK | 0.223 ± 0.13 |
| SSRTRFTDYQLRVLQDFFDTNAYPKDDEIEQLSTVLNLPTRVIVVWFQNARQKACK | -0.104 ± 0.22 |
| SSRTRFTDYQLRVLQDFFDTNAYPKDDEIEQLSTVLNLPTRVIVVWFQNARQKAHK | 0.187 ± 0.18 |
| SSRTRFTDYQLRVLQDFFDTNAYPKDDEIEQLSTVLNLPTRVIVVWFQNARQKAYK | 0.176 ± 0.39 |
| SSRTRFTDYQLRVLQDFFDTNAYPKDDEIEQLSTVLNLPTRVIVVWFQNARQKAQK | -0.1 ± 0.34 |
| SSRTRFTDYQLRVLQDFFDTNAYPKDDEIEQLSTVLNLPTRVIVVWFQNARQKAPK | -0.113 ± 0.15 |
| SSRTRFTDYQLRVLQDFFDTNAYPKDDEIEQLSTVLNLPTRVIVVWFQNARQKAEK | -0.129 ± 0.19 |
| SSRTRFTDYQLRVLQDFFDTNAYPKDDEIEQLSTVLNLPTRVIVVWFQNARQKAVK | -0.161 ± 0.12 |
| SSRTRFTDYQLRVLQDFFDTNAYPKDDEIEQLSTVLNLPTRVIVVWFQNARQKASK | -0.069 ± 0.14 |
| SSRTRFTDYQLRVLQDFFDTNAYPKDDEIEQLSTVLNLPTRVIVVWFQNARQKAAK | -0.111 ± 0.13 |
| SSRTRFTDYQLRVLQDFFDTNAYPKDDEIEQLSTVLNLPTRVIVVWFQNARQKAIK | 0.307 ± 0.23 |
| SSRTRFTDYQLRVLQDFFDTNAYPKDDEIEQLSTVLNLPTRVIVVWFQNARQKAMK | 0.154 ± 0.3 |
| SSRTRFTDYQLRVLQDFFDTNAYPKDDEIEQLSTVLNLPTRVIVVWFQNARQKAGK | -0.048 ± 0.092 |
| SSRTRFTDYQLRVLQDFFDTNAYPKDDEIEQLSTVLNLPTRVIVVWFQNARQKATK | 0.004 ± 0.19 |
| SSRTRFTDYQLRVLQDFFDTNAYPKDDEIEQLSTVLNLPTRVIVVWFQNARQRARK | -0.137 ± 0.079 |
| SSRTRFTDYQLRVLQDFFDTNAYPKDDEIEQLSTVLNLPTRVIVVWFQNARQHARK | 0.126 ± 0.17 |

| Variant | abundance fitness |
| --- | --- |
| SSRTRFTDYQLRVLQDFFDTNAYPKDDEIEQLSTVLNLPTRVIVVWFQNARQQARK | -0.155 ± 0.11 |
| SSRTRFTDYQLRVLQDFFDTNAYPKDDEIEQLSTVLNLPTRVIVVWFQNARQSARK | -0.06 ± 0.095 |
| SSRTRFTDYQLRVLQDFFDTNAYPKDDEIEQLSTVLNLPTRVIVVWFQNARQMARK | 0.119 ± 0.15 |
| SSRTRFTDYQLRVLQDFFDTNAYPKDDEIEQLSTVLNLPTRVIVVWFQNARQGARK | 0.023 ± 0.073 |
| SSRTRFTDYQLRVLQDFFDTNAYPKDDEIEQLSTVLNLPTRVIVVWFQNARQAARK | 0.145 ± 0.099 |
| SSRTRFTDYQLRVLQDFFDTNAYPKDDEIEQLSTVLNLPTRVIVVWFQNARQDARK | 0.109 ± 0.16 |
| SSRTRFTDYQLRVLQDFFDTNAYPKDDEIEQLSTVLNLPTRVIVVWFQNARQFARK | 0.036 ± 0.15 |
| SSRTRFTDYQLRVLQDFFDTNAYPKDDEIEQLSTVLNLPTRVIVVWFQNARQWARK | -0.178 ± 0.1 |
| SSRTRFTDYQLRVLQDFFDTNAYPKDDEIEQLSTVLNLPTRVIVVWFQNARQYARK | -0.223 ± 0.19 |
| SSRTRFTDYQLRVLQDFFDTNAYPKDDEIEQLSTVLNLPTRVIVVWFQNARQEARK | 0.262 ± 0.11 |
| SSRTRFTDYQLRVLQDFFDTNAYPKDDEIEQLSTVLNLPTRVIVVWFQNARQCARK | 0.11 ± 0.13 |
| SSRTRFTDYQLRVLQDFFDTNAYPKDDEIEQLSTVLNLPTRVIVVWFQNARQPARK | -0.054 ± 0.12 |
| SSRTRFTDYQLRVLQDFFDTNAYPKDDEIEQLSTVLNLPTRVIVVWFQNARQLARK | 0.144 ± 0.085 |
| SSRTRFTDYQLRVLQDFFDTNAYPKDDEIEQLSTVLNLPTRVIVVWFQNARQTARK | 0.028 ± 0.12 |
| SSRTRFTDYQLRVLQDFFDTNAYPKDDEIEQLSTVLNLPTRVIVVWFQNARQIARK | -0.124 ± 0.16 |
| SSRTRFTDYQLRVLQDFFDTNAYPKDDEIEQLSTVLNLPTRVIVVWFQNQRQKARK | -0.113 ± 0.18 |
| SSRTRFTDYQLRVLQDFFDTNAYPKDDEIEQLSTVLNLPTRVIVVWFQNTRQKARK | -0.087 ± 0.19 |
| SSRTRFTDYQLRVLQDFFDTNAYPKDDEIEQLSTVLNLPTRVIVVWFQNNRQKARK | -0.033 ± 0.22 |
| SSRTRFTDYQLRVLQDFFDTNAYPKDDEIEQLSTVLNLPTRVIVVWFQNLRQKARK | -0.256 ± 0.12 |
| SSRTRFTDYQLRVLQDFFDTNAYPKDDEIEQLSTVLNLPTRVIVVWFQNVRQKARK | -0.044 ± 0.12 |
| SSRTRFTDYQLRVLQDFFDTNAYPKDDEIEQLSTVLNLPTRVIVVWFQNKRQKARK | -0.347 ± 0.2 |
| SSRTRFTDYQLRVLQDFFDTNAYPKDDEIEQLSTVLNLPTRVIVVWFQNPRQKARK | -0.87 ± 0.29 |
| SSRTRFTDYQLRVLQDFFDTNAYPKDDEIEQLSTVLNLPTRVIVVWFQNRRQKARK | -0.155 ± 0.086 |
